These results are taken from patent publication US20260234242A1 (HAINAN SIMCERE ZAIMING PHARMACEUTICAL, published 2026).

Where a chain is given by its changes, count along the chain named.

First the molecules themselves.
T1: his-tagged human CDH6 extracellular region protein (hCDH6 ECD-his) (human, UniProt P55285 19-615)
T1 construct: also called Human CDH6-his; hCDH6-his; not shown: his tag
T1 sequence: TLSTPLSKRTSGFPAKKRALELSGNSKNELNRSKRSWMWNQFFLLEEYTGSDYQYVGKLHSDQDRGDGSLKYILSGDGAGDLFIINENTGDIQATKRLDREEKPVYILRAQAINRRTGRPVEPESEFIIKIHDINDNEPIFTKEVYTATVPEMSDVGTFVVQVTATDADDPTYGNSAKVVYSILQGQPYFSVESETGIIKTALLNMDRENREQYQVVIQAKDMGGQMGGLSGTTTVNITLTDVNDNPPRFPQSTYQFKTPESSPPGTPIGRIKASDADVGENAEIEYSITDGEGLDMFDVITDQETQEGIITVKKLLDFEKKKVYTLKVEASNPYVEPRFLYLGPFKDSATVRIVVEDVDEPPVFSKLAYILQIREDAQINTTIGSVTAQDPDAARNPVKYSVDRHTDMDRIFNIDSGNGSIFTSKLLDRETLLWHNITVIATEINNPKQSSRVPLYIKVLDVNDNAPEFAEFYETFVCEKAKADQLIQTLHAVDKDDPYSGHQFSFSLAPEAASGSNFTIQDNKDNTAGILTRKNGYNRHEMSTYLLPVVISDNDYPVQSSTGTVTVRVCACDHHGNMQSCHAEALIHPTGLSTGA

B1: CHI-CDH6-11 (antibody, human IgG1, kappa, V domains shown)
VH: QIQLQQSGPELVKPGASVRISCKASGYTFTDYYITWVKLRPGQGLEWIGWIYPGSVNIKYNEKFKGKATLTVDTSSSTAYMQLNSLTSEDSAVYFCARGGYSWFPYWGQGTLVTVSA
VL: NIVMTQSPKSMSMSVGERVTLSCKASENVHTYVSWYQQKPEQSPKLLFYGASTRNTGVPDRFTGSGSATDFTLTISSVQAEDLADYYCGQSYSYPYTFGSGTKLEIKR
notes: also called chimeric antibody of murine CDH6-11
B2: CHI-CDH6-1 (antibody, human IgG1, kappa, V domains shown)
VH: QVQLQQPGAELVRPGSSVKLSCKASGYTFTNYWMHWVKQRPIEGLEWIGDIDPSHSETHYTQKFKDKATLTVDKSSSTAYMQLSSLTSEDSAVYYCARGDLGRFDYWGQGTTLTVSS
VL: DIVLTQSPASLAVSLGQRATISCRASESVSIHGTHLMHWYQQKSGQPPKLLIYAASNLESGVPARFSGSGSETDFTFNIHPVEEEDAATYFCQQSFEDPWTFGGGTKLEIKR
notes: also called CHI-hCDH6-1; CH1-CDH6-1
B3: CHI-CDH6-10 (antibody, human IgG1, kappa, V domains shown)
VH: QVQLQQPGAELVKPGTSVKMSCKASGYTFTSDWIAWVKQRPGQGLEWIGDIYPGSGRTHNNEKFNFKATLTVDTSSNTAYMQLSSLTSEDSAVYFCARPMLGRFDYWGQGTTLTVSS
VL: B2 VL with S44P, F77L, W100F, G104S
notes: also called chimeric antibody of murine CDH6-10
B4: CHI-CDH6-2 (antibody, human IgG1, kappa, V domains shown)
VH: EVQLQQSGPELVKPGASVRISCKASGYTFTDYYMNWVKQSHGKSLEWIGDIDPNNANTTYNQKFKGKATLTVDKSSSTAYMELRSLTSEDSAVYSCASFGYDVEWFGYWGQGTLVTVSA
VL: QIVLTQSPALMSASPGEKVTMTCSASSSVSYMYWYQQKPRSSPKPWIYLTSNLASGVPARFSGSGSGTSYSLTISSMEAEDAATYYCQQWSSNPFTFGSGTKLEIKR
notes: also called chimeric antibody of murine CDH6-2
B5: CHI-CDH6-13 (antibody, human IgG1, kappa, V domains shown)
VH: DVQLQESGPGLVKPSQSLSLTCSVTGYSITKDSYWNWIRQFPGSKLEWMGFISYDGSRHYNPSLKNRISITRDTSKNQFFLQLNSVTTEDTATYYCARRDYADYWGQGTTLTVSS
VL: B4 VL with S14F, S26T, M32I, S75N, M77L, N93I, F95Y, S99G
notes: also called chimeric antibody of murine CDH6-13
B6: CHI-CDH6-9 (antibody, human IgG1, kappa, V domains shown)
VH: QVQLQQPGAELVKPGASVKLSCKASGYTFTGYWMHWVRQRPGQGLEWIGEINPNNGGTNCNEQFKNKATLTVDKSSSTAYMQLSSLTSEDSAVFYCTISFGNYLFFDVWGAGTTVTVSS
VL: DIQMTQSPASLAASVGETITITCQASENIYFSLAWYQQKQGKSPQLLIYNANTLEDGVPSRFVGSGSGTQYSMKINSIQPEDTATYFCDQTYDFPWTFGGGTKLEIKR
notes: also called chimeric antibody of murine CDH6-9
B7: CHI-CDH6-6 (antibody, human IgG1, kappa, V domains shown)
VH: EVQLQQSGPELVKPGDSVKMSCKASGYTFTDYYMAWVRQSHRKSLEWIGYIFPNSGGTDYSQKFKGKATLTVDKSSSTVYMELHSLTSEDSAVYYCARELGADYGDYYAMDHWGQGTSVSVSS
VL: DIQMTQSPASLSASVGETVTITCRASENIDSYLAWYQQKQGKSPQLLVYSATLLADGVPSRFSGSGSGTQYSLKINSLKSEDVARYYCQHYYRTPPTFGSGTKLEIKR
notes: also called CHI-hCDH6-6; chimeric antibody of murine CDH6-6
B8: CHI-CDH6-8 (antibody, human IgG1, kappa, V domains shown)
VH: EVQLQQSGPELVKPGDSVKMSCKASGYTFTDYYMAWIKQNHGKSLEWIGYIYPNNGGTDYNQKFRGKATLTVDKSSSAAYMELHSLTSEDSAVYYCAREIGTLYGDYYAMDYWGQGTSVTVSS
VL: B7 VL with S50T, K79Q, R93S
notes: also called chimeric antibody of murine CDH6-8
B9: NOV0712 (antibody, human IgG1, kappa, V domains shown)
VH: QVQLLESGGGLVQPGGSLRLSCAASGFTFSSHGMHWVRQAPGKGLEWVSVISGSGSNTGYADSVKGRFTISRDNSKNTLYLQMNSLRAEDTAVYYCARQWGSYAFDSWGQGTLVTVSS
VL: DIQMTQSPSSLSASVGDRVTITCRASQSISSYLNWYQQKPGKAPKLLIYAVSTLQSGVPSRFSGSGSGTDFTLTISSLQPEDFATYYCQQSGTFPPTTFGQGTKVEIKR
notes: Positive control, variable regions from WO2018212136A1; also called positive control anti-human CDH6 antibody
B10: CHI-CDH6-3 (antibody, human IgG1, kappa, V domains shown)
VH: QVQLQQPGAELVKPGASVKLSCKASGYTFTSYWIHWVKQRPGQGLEWIGEINPSNGVTNCNENFKSKATLTVDKSSSTAYMQLSSLTSEDSAVYYCTIPNLLWWYFDVWGAGTTVTVSS
VL: DIQMTQSPASLSVSVGETVTITCRASENIYSNLAWYQQKQGKSPQLLVYEATNLADGVPSRFSGSGSGTQYSLKINSLQSEDFGSYYCQHFWGTLWTFGGGTKLEIKR
notes: also called CH1-CDH6-3; chimeric antibody of murine CDH6-3
B11: CHI-CDH6-4 (antibody, human IgG1, kappa, V domains shown)
VH: QVQLQQSGPELVKPGASVKISCKASGYAFSNFWMNWVKQRPGKGLEWIGWIYPGDGDTNYNGKFKDKATLTADKSSSTAYIQLSSLTSEDSAVYFCARLYDAWGFFDYWGQGTTLTVSS
VL: QIVLTQSPAIMSASPGQKVTITCSASSSVNYMHWYQQKLGSSPKLWIYDKSKLAPGVPARFSGSGSGTSYSLTISSMEAEDAASYFCHQWSSYPPMTFGGGTKLEIKR
notes: also called CH1-CDH6-4; chimeric antibody of murine CDH6-4
B12: CHI-CDH6-5 (antibody, human IgG1, kappa, V domains shown)
VH: QVQLQQSGAELVRPGTSVKMSCKAAEYTFTNYWIGWVKQRPGHGLEWIGDLYPGGDHANYNEKFEGKATLTADTSSSTAYMQLSSLTSEDSAIYYCARGMLTTGFDSWGQGTTLTVSS
VL: DIVMSQSPSSLAVSAGEKVTMSCKSSQSLFNSRTRKNYLAWYQQKPGQSPKLLIYWASTRESGVPDRFTGSGSGTDFTLTISSVQAEDLAVYYCKQSYYLRTFGGGTKLEIKR
notes: also called CH1-CDH6-5; chimeric antibody of murine CDH6-5

By Kd is commonly meant a measure of binding affinity in units of concentration. Read a low Kd as tighter binding. By koff is commonly meant the rate constant with which the complex falls apart. Usually kon stands for the rate constant with which the complex forms. Low values mean slower complex formation, high ones faster complex formation. By EC50 is commonly meant the concentration that produces a half-maximal response. Read a low EC50 as higher potency in that assay.

The target in the first experiment is T1, his-tagged human CDH6 extracellular …. The experiment can be described thus: SPR Biacore 8K, antibody captured on Protein A. On the procedure: The affinity of the antibody for the antigen was determined by a multi-cycle kinetic method using a BIAcore 8K instrument. In each cycle, the antibody to be tested was captured using a Protein A chip (purchased from GE, Cat. No. 29-1275-56), and then the antigen human CDH6 protein (hCDH6-his, conventionally synthesized) was injected. The association and dissociation processes of the antibody with the antigen protein were recorded, and finally, the chip was regenerated using Glycine pH 1.5, wherein the mobile phase was HBS-EP+ (10 mM HEPES, 150 mM NaCl, 3 mM EDTA, 0.05% surfactant P20, and 1 mM Ca), the flow rate was 30 μL/min, the association time was 240 s, the dissociation time was 300 s, the regeneration time was 30 s, the detection temperature was 25° C., and the antigen concentration was 31.25-1000 nM. The data were analyzed using Biacore 8K analysis software (version No. 2.0) based on the 1:1 binding model to fit the antibody-antigen binding kinetic parameters, including the association rate constant ka, the dissociation rate constant kd, and the equilibrium dissociation constant KD. The affinity values of the control antibody DS-H01L02 were undetectable. Antibodies not shown in the table had undetectable affinity values.
On the technique in general: In SPR one partner is held on a chip, and binding of the other changes the refractive index at the surface.
Molecule B1 displayed a Kd of 5.72 nM, a koff of 0.000201 s⁻¹ and a kon of 35200 M⁻¹ s⁻¹.

In turn, B2 came in with a Kd of 8.87 nM, a koff of 0.00585 s⁻¹ and an on-rate constant (kon) of 659000 M⁻¹ s⁻¹.

B3 showed a Kd of 20.3 nM, a koff of 0.00364 s⁻¹ and a kon of 179000 M⁻¹ s⁻¹.

As for B4, binding was characterised by a dissociation constant (Kd) of 3.68 nM, the koff was 0.00185 s⁻¹ and the on-rate (kon) turned out to be 503000 M⁻¹ s⁻¹.

With B5, binding was characterised by a dissociation constant (Kd) of 78.1 nM, the koff amounted to 0.00184 s⁻¹ and the kon amounted to 23600 M⁻¹ s⁻¹.

The molecule B6 had a Kd of 138 nM, a koff of 0.00159 s⁻¹ and a kon of 11600 M⁻¹ s⁻¹.

B7 came in with a Kd of 58.6 nM, a koff of 0.00508 s⁻¹ and a kon of 86800 M⁻¹ s⁻¹.

Molecule B8 displayed a Kd of 31.2 nM, an off-rate constant (koff) of 0.00378 s⁻¹ and a kon of 121000 M⁻¹ s⁻¹.

B9 yielded a Kd of 53.5 nM, a dissociation rate constant (koff) of 0.00267 s⁻¹ and a kon of 49900 M⁻¹ s⁻¹.

The next experiment has the same target. The experiment can be described thus: ELISA, coated antigen. On the procedure:
(§1) Human CDH6 protein (hCDH6 ECD-his, conventionally synthesized), monkey CDH6 protein (cynoCDH6 ECD-his, conventionally synthesized; the cynoCDH6 ECD sequence was derived from Uniprot #A0A2K5TW62 (19-615)), and murine CDH6 protein (mCDH6 ECD-his, conventionally synthesized; the mCDH6 ECD sequence was derived from Uniprot #P97326 (19-615)) were diluted with PBS to a final concentration of 1 μg/mL, and added to a 96-well ELISA plate at 100 μL/well. The plate was incubated at 4° C. overnight. The next day, the plate was washed 3 times with a plate washing solution (PBS+0.01% (v/v) Tween 20), and a blocking buffer (PBS+0.01% (v/v) Tween 20+2% (w/w) BSA) was added for blocking at room temperature for 2 h. The blocking buffer was discarded, and the plate was washed 3 times. The chimeric antibodies were diluted with 1% BSA+PBS (purchased from Cytiva, Cat. No. SH30264.01) and added to the 96-well plate at 50 μL/well. After incubation at 37° C. for 2 h, the plate was washed 3 times with a plate washing solution. […] The plate was incubated at 37° C. for 1 h and then washed 5 times with a plate washing solution. A TMB substrate (purchased from Seracare, Cat. No. 5120-0077) was added at 50 μL/well and incubated at room temperature for 10 min, then a stop solution (1.0 N HCl) was added at 50 μL/well. OD450 nm values were read using a microplate reader (Biotek). Analysis was performed by the GraphPad Prism software, data were fitted, and EC50 values were calculated. The chimeric antibodies tested all had strong binding to the human CDH6 protein, the monkey CDH6 protein, and the murine CDH6 protein.
(In general: In an ELISA, binding on a coated surface is turned into a signal by an enzyme label.)
Regarding B1, a half-maximal response (EC50) required 0.034 nM and the “Max OD450” value came out at 2.24 OD450.

Regarding B2, a half-maximal response (EC50) required 0.04 nM and the “Max OD450” value came out at 2.23 OD450.

For the molecule B3, a half-maximal response (EC50) required 0.025 nM and the “Max OD450” value was determined as 2.03 OD450.

As for B4, the EC50 was found to be 0.027 nM and the “Max OD450” value worked out at 2.07 OD450.

On to B5, for which it took 0.009 nM to reach a half-maximal effect (EC50) and the “Max OD450” value stood at 2.62 OD450.

As to B6, the midpoint of the response, the EC50, lay at 0.016 nM and the “Max OD450” value is 2.58 OD450.

Consider B7, for which the EC50 came to 0.034 nM and the “Max OD450” value worked out at 2.18 OD450.

As to B8, the EC50 stood at 0.033 nM and the “Max OD450” value turned out to be 2.31 OD450.

For B9, the EC50 stood at 0.043 nM and the “Max OD450” value amounted to 2.32 OD450.

Another experiment has the same target. The experiment can be described thus: ELISA, coated antigen; ELISA, hCDH6 ECD-his coated at 1 µg/mL, antibody in solution. On the procedure: as §1
Consider B10, for which a half-maximal response (EC50) required 0.03 nM.

B11 displayed an EC50 of 0.053 nM.

B12 came in with an EC50 of 0.043 nM.
